Results from patent publication US20240400654A1.
Changes are numbered by the printed parent chain. Numbers in names are those of the source. Where “and” joins values, the source holds several entries; their conditions need not be identical. Equal values may be shown once.

Columns and labels:
[1] = target: HRgpA-6H (Porphyromonas gingivalis) (UniProt P28784); assay: ELISA; non-related FASEBA supernatant on HRgpA-6H coat; secondary Anti-BSA (HRP)
[2] = target: HRgpA-6H (Porphyromonas gingivalis) (UniProt P28784); assay: ELISA; non-related FASEBA supernatant on HRgpA-6H coat; secondary goat anti-human IgG (H+L) HRP
[3] = target: HRgpA-6H (Porphyromonas gingivalis) (UniProt P28784); assay: ELISA; non-related FASEBA supernatant on HRgpA-6H coat; secondary goat anti-human IgG F(ab')2 HRP
[4] = target: HRgpA-6H (Porphyromonas gingivalis) (UniProt P28784); assay: ELISA; non-related FASEBA supernatant on HRgpA-6H coat; secondary mouse anti-human IgG F(ab')2 HRP
[5] = target: whole P. gingivalis cells (strain W83) (Porphyromonas gingivalis)
[6] = target: whole P. gingivalis cells (strain W83) (Porphyromonas gingivalis); assay: gold-labelled KB001, scanning electron microscopy, W83
[7] = target: HRgpA-6H (Porphyromonas gingivalis) (UniProt P28784); assay: SPR Biacore 8K, 25 C; table lists HRgpA-6H as ligand, antibody as analyte
[8] = target: HRgpA-6H (Porphyromonas gingivalis) (UniProt P28784); assay: SPR Biacore 8K, 25 C; HRGPA-6H immobilized on CM5, KB001-WT-Ab as analyte
[9] = target: HRgpA-6H (Porphyromonas gingivalis) (UniProt P28784); assay: ELISA, FASEBA screening, coated HRgpA-6H 0.0625 ug/ml
[10] = target: HRgpA-6H (Porphyromonas gingivalis) (UniProt P28784); assay: ELISA, FASEBA screening, coated HRgpA-6H; variant OD over parental WT Fab OD
[11] = target: HRgpA-6H (Porphyromonas gingivalis) (UniProt P28784); assay: ELISA, FASEBA screening, coated HRgpA-6H; library clone found WT, OD over parental WT Fab OD
[12] = target: HRgpA-6H (Porphyromonas gingivalis) (UniProt P28784); assay: SPR Biacore 8K; table lists HRgpA-6H as ligand, antibody as analyte

Molecule: non-related FASEBA supernatant (NC) (Fab)
- OD450 [1]: 1.09
- OD450 ([2]; coating antigen 1 µg/ml): 1.15
- OD450 ([2]; coating antigen 2 µg/ml): 0.736
- OD450 [3]: 0.672
- OD450 ([4]; coating antigen 1 µg/ml): 0.552
- OD450 ([4]; coating antigen 2 µg/ml): 0.288

B1: KB001 (antibody, V domains shown)
VH: EVQLKQSGPGLVAPSQSLSITCTVSGFSLSIYSVHWVRQPPGKGLEWLGMIWGGGSSDYNSALKSRLSISKDNSKSQVFLKMNSLQTDDTAMYYCARNGNFYAMDYWGQGTSVTVSS
VL: QIVLTQSPAIMSASLGERVTMTCTASSSVSSSFLHWYQQKPGSSPQLWIYSTSNLASGVPARFSGSGSGTSYSLTISSMEAEDAATYYCHQYHHSPYIYTFGGGTKLEIKR
- Kd [5]: 11400 pM
- Response [5]: 0.297 and 0.216 and 0.186
- koff [5]: 0.000219 s⁻¹
- kon [5]: 19200 M⁻¹ s⁻¹
- IgG molecules bound per bacterium (molecules per bacterium) [6]: 60 and 80
- Kd [7]: 2020 pM
- koff [7]: 8.62e-05 s⁻¹
- kon [7]: 42600 M⁻¹ s⁻¹
- Kd [8]: 2020 pM
- koff [8]: 8.62e-05 s⁻¹
- kon [8]: 42600 M⁻¹ s⁻¹

B2: KB001 parental mouse Fab FASEBA variant VH Y106Q (Fab, V domains shown)
VH: B1 VH with Y106Q
VL: QIVLTQSPAIMSASLGERVTMTCTASSSVSSSFLHWYQQKPGSSPQLWIYSTSNLASGVPARFSGSGSGTSYSLTISSMEAEDAATYYCHQYHHSPYIYTFGGGTKLEIK
- OD450 nm [9]: 0.768
- Ratio OD(Variant)/OD(WT) [10]: 0.999

B3: KB001 parental mouse Fab FASEBA variant VH Y106I (Fab, V domains shown)
VH: B1 VH with Y106I
VL: B2 VL
- OD450 nm [9]: 0.73 and 0.728 and 0.764
- Ratio OD(Variant)/OD(WT) [10]: 0.949 and 0.947 and 0.993

B4: KB001 parental mouse Fab FASEBA variant VH A103C (Fab, V domains shown)
VH: B1 VH with A103C
VL: B2 VL
- OD450 nm [9]: 0.77
- Ratio OD(Variant)/OD(WT) [10]: 0.893

B5: KB001 parental mouse Fab FASEBA variant VH A103I (Fab, V domains shown)
VH: B1 VH with A103I
VL: B2 VL
- OD450 nm [9]: 0.695 and 0.693
- Ratio OD(Variant)/OD(WT) [10]: 0.806 and 0.804

B6: KB001 parental mouse Fab FASEBA variant VH M104L (Fab, V domains shown)
VH: B1 VH with M104L
VL: B2 VL
- OD450 nm [9]: 0.786
- Ratio OD(Variant)/OD(WT) [10]: 0.904

B7: KB001 parental mouse Fab FASEBA variant VH Y106K (Fab, V domains shown)
VH: B1 VH with Y106K
VL: B2 VL
- OD450 nm [9]: 0.767
- Ratio OD(Variant)/OD(WT) [10]: 0.997

B8: KB001 parental mouse Fab FASEBA variant VH Y106W (Fab, V domains shown)
VH: B1 VH with Y106W
VL: B2 VL
- OD450 nm [9]: 0.733 and 0.748
- Ratio OD(Variant)/OD(WT) [10]: 0.953 and 0.973

B9: KB001 parental mouse Fab FASEBA (WT) (Fab, V domains shown)
VH: B1 VH
VL: B2 VL
- OD450 nm [9]: 0.831
- Ratio OD(Variant)/OD(WT) [11]: 0.956

B10: KB001 parental mouse Fab FASEBA variant VH A103K (Fab, V domains shown)
VH: B1 VH with A103K
VL: B2 VL
- OD450 nm [9]: 0.723
- Ratio OD(Variant)/OD(WT) [10]: 0.839

B11: KB001 parental mouse Fab FASEBA variant VH Y106H (Fab, V domains shown)
VH: B1 VH with Y106H
VL: B2 VL
- OD450 nm [9]: 0.722
- Ratio OD(Variant)/OD(WT) [10]: 0.939

B12: KB001 parental mouse Fab FASEBA variant VH M104V (Fab, V domains shown)
VH: B1 VH with M104V
VL: B2 VL
- OD450 nm [9]: 0.654
- Ratio OD(Variant)/OD(WT) [10]: 0.85

B13: KB001 parental mouse Fab FASEBA variant VH Y106D (Fab, V domains shown)
VH: B1 VH with Y106D
VL: B2 VL
- OD450 nm [9]: 0.675
- Ratio OD(Variant)/OD(WT) [10]: 0.878

B14: H8 (antibody, V domains shown)
VH: QVQLQESGPGLVKPSETLSLTCTVSGFSLSIYSVHWIRQPPGKGLEWIGMIWGGGSSDYNSALKSRLTISKDTSKNQVSLKLSSVTAADTAVYYCARNGNFYAMDYWGQGTLVTVSS
VL: EIVLTQSPGTLSLSPGERATLSCTASSSVSSSFLHWYQQKPGQAPQLWIYSTSNLASGIPARFSGSGSGTDYTLTISRLEPEDFATYYCHQYHHSPYIYTFGGGTKLEIK
- Kd [7]: 1330 pM
- koff [7]: 6.7e-05 s⁻¹
- kon [7]: 50300 M⁻¹ s⁻¹

B15: H14 K222A (antibody, V domains shown)
VH: B14 VH with I48L, V92M
VL: B14 VL with A61D, T86V
- Kd [12]: 1300 pM
- koff [12]: 6.53e-05 s⁻¹
- kon [12]: 50100 M⁻¹ s⁻¹

B16: H7 K222A (antibody, V domains shown)
VH: B14 VH
VL: B14 VL with A61D
- Kd [12]: 795 pM
- koff [12]: 4.36e-05 s⁻¹
- kon [12]: 54800 M⁻¹ s⁻¹

B17: H7 (antibody, V domains shown)
VH: B14 VH
VL: B14 VL with A61D
- Kd [7]: 258 pM
- koff [7]: 1.07e-05 s⁻¹
- kon [7]: 41400 M⁻¹ s⁻¹

B18: H5 (antibody, V domains shown)
VH: B14 VH
VL: B14 VL with Q46R, W48L, A61D, Y72F, T86V
- Kd [7]: 825 pM
- koff [7]: 4.5e-05 s⁻¹
- kon [7]: 54500 M⁻¹ s⁻¹

B19: H8 K222A (antibody, V domains shown)
VH: B14 VH
VL: B14 VL
- Kd [12]: 570 pM
- koff [12]: 3.3e-05 s⁻¹
- kon [12]: 58000 M⁻¹ s⁻¹

B20: H14 (antibody, V domains shown)
VH: B14 VH with I48L, V92M
VL: B14 VL with A61D, T86V
- Kd [7]: 939 pM
- koff [7]: 4.89e-05 s⁻¹
- kon [7]: 52100 M⁻¹ s⁻¹

B21: H5 K222A (antibody, V domains shown)
VH: B14 VH
VL: B14 VL with Q46R, W48L, A61D, Y72F, T86V
- Kd [12]: 68 pM
- koff [12]: 3.42e-06 s⁻¹
- kon [12]: 50200 M⁻¹ s⁻¹
